B1: Fab 2A10 (antibody, V domains shown)
VH: QVQLVESGGGLIQPGGSLRLSCAASEFIVSSNYMSWVRQAPGKGLEWVSLLYSGGTTYYADSVKGRFTISRDNSKNTLFLQMNSLRAEDTAMYYCARDRGPWLHDYWGQGTLVTVS
VL: DIVMTQSPSSLSASVGDRVTITCQASQDINKYCNWYQQKPGKAPKLLIYDASNLETGVPSRFSGSGSGTDFTFTINSLQPEDIATYYCQQYDNLPPTFGGGTKVEIK
B2: Fab 1C3 (Fab, V domains shown)
VH: QVQLLESGGGLVQPGRSLRLSCAASGFTFDDYAMHWVRQPPGKGLEWVSGSSWNSGSVVYADSVKGRFTISRDSAKNSLHLQMNSLRVEDTALYYCAKAVDPTRGSYSPDYGFDIWGQGTMVTVS
VL: not shown
B3: 1C3 antigen-binding fragment (Fab) (Fab, V domains shown)
VH: B2 VH
VL: not shown

Experiments:
Assay in all cases: SPR
[1] = molecular target: SARS-CoV-2 Omicron BA.1 spike (SARS-CoV-2 Omicron BA.1, UniProt P0DTC2 14-1208)
[2] = molecular target: rVSV-Delta spike (SARS-CoV-2 Delta, UniProt P0DTC2 14-1252)
[3] = molecular target: BA.2
[4] = molecular target: rVSV Beta spike (SARS-CoV-2 Beta, UniProt P0DTC2 14-1252)

Row | Binder | Kd [1] | Kd [2] | Kd [3] | Kd [4]
1 | B1 | 4.42 nM | 0.132 nM | – | –
2 | B2 | – | – | 0.023 nM | –
3 | B3 | 0.041 nM | 0.036 nM | – | 0.039 nM

Reference: patent US20250382353A1 (published 2025)
